The results in this text go back to article PMC6349045.

Data set [1] deals with T1, NP220 DNA-binding domain (NP220DB) (UniProt Q14966 1240-1478).
T1 sequence: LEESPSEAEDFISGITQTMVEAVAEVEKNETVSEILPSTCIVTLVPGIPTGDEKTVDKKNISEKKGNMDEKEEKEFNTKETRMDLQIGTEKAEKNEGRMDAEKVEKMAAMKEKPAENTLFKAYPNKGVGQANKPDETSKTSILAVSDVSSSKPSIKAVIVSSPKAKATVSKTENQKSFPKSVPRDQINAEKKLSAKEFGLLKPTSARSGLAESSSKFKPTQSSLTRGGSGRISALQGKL
The data set can be described thus: EMSA.

The target of data set [2] is T1, NP220 DNA-binding domain (NP220DB). The data set can be described thus: competition.
The target is the same in data set [3]. The data set can be described thus: competition. This is another data set of the same source.

B1: Bio-DNA84 (MLV U3 LTR fragment) (dsDNA)
DNA 1: AGGATATCTGTGGTAAGCAGTTCCTGCCCCGGCTCAGGGCCAAGAACAGATGGTCCCCAGATGCGGTCCAGCCCTCAGCAGTTT
DNA 2: AAACTGCTGAGGGCTGGACCGCATCTGGGGACCATCTGTTCTTGGCCCTGAGCCGGGGCAGGAACTGCTTACCACAGATATCCT
Take B1: in data set [1], the binding result is listed as “binds”.

B2: DNA84 (unlabeled) (dsDNA)
DNA 1: B1 DNA 1
DNA 2: B1 DNA 2
With B2, in data set [2], the binding result is listed as “binds”.

B3: DNA72 (NP220 sites deleted) (dsDNA)
DNA 1: AGGATATCTGTGGTAAGCAGTTCCTGCTCAGGGCCAAGAACAGATGGTATGCGGTCCAGCCCTCAGCAGTTT
DNA 2: AAACTGCTGAGGGCTGGACCGCATACCATCTGTTCTTGGCCCTGAGCAGGAACTGCTTACCACAGATATCCT
As to B3, in data set [3], the binding result is on record as “no binding”.
